Data from patent publication US7867500B2, “Cofactor that modulates steroid receptor activities” (The United States of America as represented by the …, priority 2004, dated 2011).

What was measured:
[1] = system: GR repression of an AP-1 induced gene; experiment: GR-mediated repression of PMA-induced AP-1/Luc reporter in U2OS.rGR cells; assay type: cell-based; details: 25 μM PMA, no Dex
Method: FIG. 5A-F illustrate STAMP modulation of GR-mediated repression. […] U2OS.rGR cells were transiently transfected with ±TIF2 (20 ng)±STAMP (100 ng) plasmids, AP-1/Luc reporter (20 ng), and Renilla control (10 ng) plasmid. The cells were induced with ethanol (EtOH) or 25 μM PMA±0.1 μM Dex. […] The average values±S.E.M. of four experiments are plotted. The numbers in parentheses above the bars labeled “PMA+Dex” represent the average fold repression caused by Dex± the various factors.
FIG. 5B illustrates that functional TIF2 is needed for optimal STAMP activity. U2OS.rGR cells were transiently transfected and processed as described for FIG. 5A but less STAMP (50 ng) was used and two concentrations of TIF2 or TIF2m123 (10 and 20 ng) were employed. The average values±S.E.M. of 4-5 experiments are plotted. An asterisk indicates a significant difference (P≦0.031) between samples containing equal amounts of TIF2 and TIF2m123.
Rogatsky et al. have reported that TIF2 augments GR repression of an AP-1 induced gene. […] The TIF2 domain identified as having TIF2 activity in GR repression was the same as used to isolate STAMP. In order to determine if STAMP was active in GR-mediated gene repression as well as induction, the ability of STAMP to increase the repressive activity of GR in the AP-1 responsive whole cell bioassay system was assessed using U2OS.rGR cells.

coll3 promoter = experiment: ChIP assay on the endogenous coll3 promoter in U2OS.rGR cells; assay type: cell-based; details: 1 μM Dex, after 20 min of steroid treatment; HA/STAMP
Method: FIG. 5C illustrates that STAMP and GR are co-localized on the promoter of an endogenous regulated gene as detected by chromatin immunoprecipitation (ChIP) assays. U2OS.rGR cells were treated with 1 μM Dex and then processed after 0 to 80 min as described in Example 1. The binding of GR and STAMP to the coll3 promoter was determined by the ability of PCR to amplify coll3 promoter sequences in the DNA that had been co-immunoprecipitated by anti-GR and anti-HA (to immobilize HA/STAMP) antibodies, respectively (upper panel). […] Similar results were obtained in two additional experiments.
The basic method of Ma et al. (Ma et al. (2003) Methods Enzymol. 364: […], was used with modifications. Two days before harvest, U2OS.rGR cells were seeded into 150 mm dishes at 3,000,000 cells per dish in phenol-red free medium with 10% charcoal/dextran-stripped fetal bovine serum. Each dish was transfected on the next day with 15 μg HA-STAMP and 60 μl Liopfectamine. On the third day, after brief ligand treatment, formaldehyde (37%) was added directly into the medium to a final concentration of 1% (37° C., 10 min), which was followed by glycine to a final concentration of 0.125 M (room temperature, 5 min with shaking). Cells were washed with (4° C.) cold PBS twice and harvested by scraping into 5 ml of cold (4° C.) PBS with a protease inhibitor cocktail (Roche). […]

B1: STAMP: SRC-1 and TIF2 Associated Modulatory Protein, 1277 amino acid human polypeptide, expressed from transfected plasmid (protein)
chain: MARDLEETASSSEDEEVISQEDHPCIMWTGGCRRIPVLVFHADAILTKDNNIRVIGERYHLSYKIVRTDSRLVRSILTAHGFHEVHPSSTDYNLMWTGSHLKPFLLRTLSEAQKVNHFPRSYELTRKDRLYKNIIRMQHTHGFKVFHILPQTFLLPAEYAEFCNSYSKDRGPWIVKPVASSRGRGVYLINNPNQISLEENILVSRYINNPLLIDDFKFDVRLYVLVTSYDPLVIYLYEEGLARFATVRYDQGAKNIRNQFMHLTNYSVNKKSGDYVSCDDPEVEDYGNKWSMSAMLRYLKQEGRDTTALMAHVEDLIIKTIISAELAIATACKTFVPHRSSCFELYGFDVLIDSTLKPWLLEVNLSPSLACDAPLDLKIKASMISDMFTVVGFVCQDPAQRASTRPIYPTFESSRRNPFQKPQRCRPLSASDAEMKNLVGSAREKGPGKLGGSVLGLSMEEIKVLRRVKEENDRRGGFIRIFPTSETWEIYGSYLEHKTSMNYMLATRLFQDRMTADGAPELKIESLNSKAKLHAALYERKLLSLEVRKRRRRSSRLRAMRPKYPVITQPAEMNVKTETESEEEEEVALDNEDEEQEASQEESAGFLRENQAKYTPSLTALVENTPKENSMKVREWNNKGGHCCKLETQELEPKFNLMQILQDNGNLSKMQARIAFSAYLQHVQIRLMKDSGGQTFSASWAAKEDEQMELVVRFLKRASNNLQHSLRMVLPSRRLALLERRRILAHQLGDFIIVYNKETEQMAEKKSKKKVEEEEEDGVNMENFQEFIRQASEAELEEVLTFYTQKNKSASVFLGTHSKISKNNNNYSDSGAKGDHPETIMEEVKIKPPKQQQTTEIHSDKLSRFTTSAEKEAKLVYSNSSSGPTATLQKIPNTHLSSVTTSDLSPGPCHHSSLSQIPSAIPSMPHQPTILLNTVSASASPCLHPGAQNIPSPTGLPRCRSGSHTIGPFSSFQSAAHIYSQKLSRPSSAKAGSCYLNKHHSGIAKTQKEGEDASLYSKRYNQSMVTAELQRLAEKQAARQYSPSSHINLLTQQVTNLNLATGIINRSSASAPPTLRPIISPSGPTWSTQSDPQAPENHSSSPGSRSLQTGGFAWEGEVENNVYSQATGVVPQHKYHPTAGSYQLQFALQQLEQQKLQSRQLLDQSRARHQAIFGSQTLPNSNLWTMNNGAGCRISSATASGQKPTTLPQKVVPPPSSCASLVPKPPPNHEQVLRRATSQKASKGSSAEGQLNGLQSSLNPAASVPITSSTDPAHTKI
[1]
  fold induction by PMA: unchanged
coll3 promoter
  localization on the coll3 promoter: induced to localize on the coll3 promoter
